Patent CN110903386A (INST MILITARY MEDICINE ACADEMY MILITARY SCIENCES PLA, dated 2020)

Molecular target: 基孔肯雅病毒E2蛋白 (基孔肯雅病毒标准株S27, UniProt Q8JUX5 326-748)
Assay: cell-based or functional assay

Sequence of 基孔肯雅病毒E2蛋白 (Q8JUX5 326-748 limits assumed): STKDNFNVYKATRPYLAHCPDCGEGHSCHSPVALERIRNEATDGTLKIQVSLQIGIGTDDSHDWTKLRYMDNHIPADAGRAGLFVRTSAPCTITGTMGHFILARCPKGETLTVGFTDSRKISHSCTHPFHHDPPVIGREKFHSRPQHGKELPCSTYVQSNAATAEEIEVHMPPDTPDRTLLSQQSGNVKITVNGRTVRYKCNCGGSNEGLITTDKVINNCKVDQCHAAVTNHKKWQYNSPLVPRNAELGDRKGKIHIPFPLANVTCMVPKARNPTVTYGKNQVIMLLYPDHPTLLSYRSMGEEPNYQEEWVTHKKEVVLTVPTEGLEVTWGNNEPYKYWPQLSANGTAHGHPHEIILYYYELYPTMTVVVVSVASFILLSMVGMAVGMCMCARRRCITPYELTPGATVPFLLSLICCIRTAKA

B1: 抗基孔肯雅病毒全人源单克隆抗体8D1 (antibody, human IgG1, kappa, V domains shown)
VH: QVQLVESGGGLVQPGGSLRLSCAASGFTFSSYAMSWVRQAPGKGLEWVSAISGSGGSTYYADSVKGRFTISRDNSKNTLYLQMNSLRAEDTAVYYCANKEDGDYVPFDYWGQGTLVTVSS
VL: DIVMTQSPATLSASVGDRVTITCRASQSISSYLNWYQQKPGKAPKLLIYAASSLQSGVPSRFSGSGSGTDFTLTISSLQPEDFATYYCQQSYFFGPGTKVDIKR
IC50, Vero细胞中和实验 (结晶紫染色, 细胞活率): 0.12 µg/mL
